From the Human Domainome abundance scans (Beltran et al. 2025)

B1: Telomeric repeat-binding factor 2, residues 489 to 542; numbered along this chain, Q15554 (parent)
chain: KQKWTVEESEWVKAGVQKYGEGNWAAISKNYPFVNRTAVMIKDRWRTMKRLGMN

Variants of: B1
Test: abundance fitness (aPCA) (normalised: wild type 0, dead -1); higher = more abundant; growth selection in yeast, the domain comes from the species named
Details: Homo sapiens

Abundance fitness of substitutions, site by site:
K1: C -0.578; D -0.17; E -0.323; G -0.585; M -0.501; R -0.631
Q2: A -0.138; C -0.248; D 0.184; E 0.254; F 0.725; G -0.163; H 0.518; I 0.29; L -0.017; M -0.191; N 0.333; P -0.981; R -0.202; S -0.175; V 0.271; W -0.34
K3: A -0.098; C -0.394; E -0.175; F -0.258; G -0.268; H -0.519; I -0.278; M 0.339; N -0.499; P -0.01; Q -0.245; T -0.052; V -0.205; W -0.33
W4: A -0.804; C -0.599; D -0.171; E -0.126; F -0.023; G -0.637; H -0.391; I -0.131; K -0.426; L -0.41; M -0.27; P -0.216; Q -0.266; R -0.747; S -0.248; T -0.258; V -0.61; Y -0.325
T5: D -0.38; E -0.272; F -0.826; G -0.421; I -0.669; K -0.161; L -0.75; M -0.21; P -0.398; Q -0.502; R -0.557; S -0.105; V -0.789; W -0.631
V6: A 0.291; C 0.07; D 0.059; E -0.007; F 0.031; G -0.253; H 0.298; I 0.005; K 0.171; M -0.768; N -0.433; R 0.03; S -0.024; T -0.115; W -0.063; Y 0.192
E7: A -0.242; C -0.607; D -0.141; F -0.47; G -0.834; H -0.377; I -0.427; L -0.258; M -0.015; N -0.721; P -0.401; Q -0.075; R -0.221; S -0.67; T -0.196; V -0.459; W -0.443; Y -0.329
E8: A -0.381; G -0.394; I -0.339; K -1; L -0.19; M -0.238; N -0.707; P -0.598; Q -0.566; R -0.638; S -0.65; T -0.485; V -0.596; W -0.153; Y 0.233
S9: A -0.219; C -0.343; G -0.354; I -0.021; L -0.31; M 0.39; N 0.107; R -0.671; T -0.15; V -0.483; W -0.335; Y -0.481
E10: C -0.277; D -0.486; F -0.255; G -0.38; H 0.044; I -0.529; K -0.314; M -0.055; Q -0.177; S -0.311; T -0.102; V -0.359; W -0.414
W11: A -0.352; D -0.183; F -0.394; G -0.193; H -0.294; I -0.241; M -0.111; N -0.391; P -0.327; R -0.553; S -0.321; T -0.12; V -0.47; Y -0.191
V12: A -0.423; C -0.362; E -0.262; F -0.75; G -0.495; H -1.02; K -0.626; M -0.132; N -0.844; P -0.325; Q -0.895; R -0.682; S -0.356; T -0.144; W -0.744; Y -0.855
K13: A -0.242; C -0.534; D -0.332; E -0.25; F -0.24; G -0.184; H -0.13; I -0.163; L -0.112; M -0.013; N -0.232; Q 0.076; R 0.017; S -0.128; V -0.021; Y -0.072
A14: D -0.041; E -0.116; F -0.4; G -0.236; H -0.209; L -0.051; N -0.276; P -0.306; Q -0.189; R -0.002; S 0.084; W -0.382; Y -0.217
G15: A -0.761; C -0.652; D -0.772; E -0.758; F -0.888; H -0.946; I 0.246; K -0.657; L -0.503; M -0.934; N -0.485; V -0.587; W -0.284
V16: A -0.505; D -0.459; E -0.62; F -0.936; G -0.504; H -0.071; I -0.446; K -0.798; L -0.696; M -0.664; Q -0.398; R -0.323; S -0.563; T -0.157; W -0.765; Y -0.885
Q17: A -0.031; C 0.016; D -0.273; E -0.441; F -0.469; G -0.108; H -0.328; I -0.066; K -0.143; L -0.014; M -0.531; N -0.295; P -0.63; R -0.2; S -0.087; T 0.003; V -0.244; W -0.376; Y -0.136
K18: A -0.368; C -0.403; E -0.233; F -0.477; G -0.616; L -0.342; M -0.254; N -0.435; P -0.686; Q -0.07; R 0.076; S -0.736; T -0.035; W -0.956
Y19: A -0.421; C -0.528; E -0.321; G -0.912; H -0.28; I -0.051; K -0.004; L -0.51; M -0.464; N -0.242; P -0.083; Q -0.225; R -0.162; S -0.375; T -0.395; V -1.04; W -0.557
G20: A -1.11; E -0.954; H -0.126; I -0.621; L -1.06; P -0.813; Q -0.587; S -0.488; T -0.99; V -0.918; W -0.541; Y -0.781
E21: A -0.314; C -0.432; D -0.26; F -0.1; G -0.389; H -0.598; K -0.44; M -0.829; Q -0.634; R -0.704; S -0.323; T -0.478; W -0.502; Y -0.123
G22: A -0.286; D -0.051; E -0.461; F -0.338; I -0.595; K -0.418; L -0.761; M -0.788; P -0.846; Q -0.427; R -0.261; T -0.467; V -0.489; W -0.695; Y -0.204
N23: A -0.298; C -0.417; D -0.527; E -0.801; G -0.61; I -0.354; K 0.133; L -0.56; M -0.385; P -0.773; Q 0.057; S -0.238; T -0.478
